Experimental findings from US20240270853A1 (Chugai, published 2024) are described below.

T1: mouse DDR2 delta DSL-EJXM (stably expressed on Ba/F3 cell line) (mouse, UniProt Q62371 22-854)
T1 construct: Full length mouse DDR2 with Gln201-Val393 deleted; also called mouse DDR2 fragment with DSL domain and EJXM region (Gln201-Val393) deleted
T1 sequence: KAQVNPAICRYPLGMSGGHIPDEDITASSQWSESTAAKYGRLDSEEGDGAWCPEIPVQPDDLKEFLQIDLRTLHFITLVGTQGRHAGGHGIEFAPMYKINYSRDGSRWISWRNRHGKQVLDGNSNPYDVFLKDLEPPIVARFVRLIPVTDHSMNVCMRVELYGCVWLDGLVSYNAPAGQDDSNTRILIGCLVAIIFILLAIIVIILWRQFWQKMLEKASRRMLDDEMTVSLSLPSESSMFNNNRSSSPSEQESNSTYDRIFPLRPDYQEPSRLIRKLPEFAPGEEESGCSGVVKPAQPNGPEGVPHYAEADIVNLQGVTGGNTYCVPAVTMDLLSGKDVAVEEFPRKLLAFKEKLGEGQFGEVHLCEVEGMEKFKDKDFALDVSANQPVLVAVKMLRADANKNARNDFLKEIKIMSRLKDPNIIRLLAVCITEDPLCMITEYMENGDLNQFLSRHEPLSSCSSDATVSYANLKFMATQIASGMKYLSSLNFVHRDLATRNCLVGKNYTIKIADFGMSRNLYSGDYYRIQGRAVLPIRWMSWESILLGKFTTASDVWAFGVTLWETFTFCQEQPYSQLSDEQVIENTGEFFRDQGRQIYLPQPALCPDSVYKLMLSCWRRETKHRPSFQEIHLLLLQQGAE

T2: full length mouse DDR2 (stably expressed on Ba/F3 cell line) (mouse, UniProt Q62371 22-854)
T2 construct: also called moDDR2
T2 sequence: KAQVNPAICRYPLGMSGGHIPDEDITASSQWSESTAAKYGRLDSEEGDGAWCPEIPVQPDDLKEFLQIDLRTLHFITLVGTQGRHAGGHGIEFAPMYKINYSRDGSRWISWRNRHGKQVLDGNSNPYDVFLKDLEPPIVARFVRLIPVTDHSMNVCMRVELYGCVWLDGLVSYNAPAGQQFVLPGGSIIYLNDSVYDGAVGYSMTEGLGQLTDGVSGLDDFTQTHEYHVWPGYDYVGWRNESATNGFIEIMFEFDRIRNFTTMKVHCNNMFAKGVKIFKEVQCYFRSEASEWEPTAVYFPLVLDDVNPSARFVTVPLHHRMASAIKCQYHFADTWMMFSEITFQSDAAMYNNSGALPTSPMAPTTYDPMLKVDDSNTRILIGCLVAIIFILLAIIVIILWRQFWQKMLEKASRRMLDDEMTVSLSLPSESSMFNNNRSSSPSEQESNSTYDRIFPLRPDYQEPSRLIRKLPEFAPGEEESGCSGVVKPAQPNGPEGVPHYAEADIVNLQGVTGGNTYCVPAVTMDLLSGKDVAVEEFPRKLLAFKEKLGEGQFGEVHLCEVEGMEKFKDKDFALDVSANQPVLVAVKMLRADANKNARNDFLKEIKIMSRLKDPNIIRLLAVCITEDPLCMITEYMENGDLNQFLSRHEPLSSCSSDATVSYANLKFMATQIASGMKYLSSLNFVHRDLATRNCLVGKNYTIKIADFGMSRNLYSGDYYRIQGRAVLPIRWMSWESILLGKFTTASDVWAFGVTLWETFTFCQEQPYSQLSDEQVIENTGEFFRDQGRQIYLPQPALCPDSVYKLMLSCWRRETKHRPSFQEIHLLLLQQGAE

B1: DAB0009 (antibody, V domains shown)
VH: QSVEESGGRLVTPGTPLTLTCAVSGFSLNSHVMGWVRQAPGRGLECIGIIAVSGDIYYANWAKGRFTISKTSTTVDLRITSPTTEDTATYFCGSPTVINNNNLWGQGTLVTVSS
VL: AQVLTQTASPVSAAVGGTVTINCQSSQNVYGNNYLSWFQQKPGQPPKLLIYSTSTLASGVSSRFKGSGSGTQFTLTISDLECADAATYYCLGGYDCNIVDCRAFGGGTKVEIK
notes: Variable regions from immunized rabbits
B2: DAB0071 (antibody, V domains shown)
VH: QSLEESGGRLVTPGGSLTLTCTASGFSLSAYYMQWVRQAPGKGLEWIGWINTGGSAYYPSWARGRFTISKTSTTVDLKITSPTTEDTATYFCARSDASVHQFNLWGQGTLVTVSS
VL: DVVMTQTPASVEAAVGGTVTIKCQASESIGNALAWYQQRPGQPPKLLIYYASTLESGVPSRFKGSGSGTEFTLTISDLECADAATYYCQCTYGSGSSRGNAFGGGTKVEIK
notes: as for B1
B3: DAB0052 (antibody, V domains shown)
VH: QSVEESGGRLVTPGTPLTLTCTVSGFSLNRYTGIWVRQAPGKGLEWIGIISSDDRTWYASWAKGRFTISKTSTTVDLKITSPTIEDTATYFCARDVGGDSWFWGLWGQGTLVTVSS
VL: DIVMTQTPASVEAAVGGTVTIKCQASQSISSWLAWYQQKPGQPPKLLIYYASTLASGVPSRFSGSGSGTEFTLTISDLECADAATYYCQSNYYSSSNSNYGHAFGGGTKVEIK
notes: as for B1

In the first assay the target is T1, mouse DDR2 delta DSL-EJXM (stably …). Kind of assay: flow cytometry on Ba/F3 cells expressing mouse DDR2 delta DSL-EJXM. As for the experimental part:
Mean Fluorescent Intensity (MFI) of each antibody was measured by flow cytometry using Ba/F3 cell line that stably expresses mouse DDR2 fragment in which Discoidin-like (DSL) domain and extracellular juxtamembrane (EJXM) region were deleted from full length mouse DDR2 (mouse DDR2 delta DSL-EJXM). Names under the horizontal axis are names of the tested antibodies. IC17dK is an anti-KLH antibody used as a negative control.
To map more detailed binding epitope of anti-DDR2 antibodies, fragment of mouse DDR2, in which discoidin-like (DSL) domain and extracellular juxtamembrane (EJXM) region (Gln201-Val393) are deleted from full length mouse DDR2 (mouse DDR2 delta DSL-EJXM) was made. Mouse DDR2 delta DSL-EJXM stably-expressing Ba/F3 cell line was prepared. Binding of the antibodies to this cell line was measured by flow cytometry and MFI value was acquired. Epitope of antibodies which can bind to full length mouse DDR2 but not to mouse DDR2 delta DSL-EJXM would be DSL-EJXM region. Epitope of antibodies which can bind to both full length mouse DDR2 and mouse DDR2 delta DSL-EJXM would be discoidin (DS) domain. In Table2, “Yes” means that tested antibody can bind to the cell line and “No” means that antibody cannot bind to the cell line.
A general note: In flow cytometry, cells or beads pass a laser one at a time.
For the molecule B1, the binding result is listed as “no binding”.
Take B2: the binding result is listed as “no binding”.
Regarding B3, the binding result is reported as “no binding”.

The target in another assay is T2, full length mouse DDR2 (stably …). Nature of the assay: flow cytometry on Ba/F3 cells expressing full length mouse DDR2, one-arm format. The protocol:
Mean Fluorescent Intensity (MFI) of each antibody was measured by flow cytometry using Ba/F3 cell line that stably expresses full length mouse DDR2. Names under the horizontal axis are names of the tested antibodies. IC17dK is an anti-KLH antibody used as a negative control.
To determine antibody binding to mouse DDR2, flow cytometry analysis was carried out by using mouse-DDR2-stably-expressing Ba/F3 cell line. One-arm format antibodies, which contains one antibody variable region in each molecule, were prepared to evaluate the binding by affinity mode.
With B1, the binding result is “binds”.
With B2, the binding result was “binds”.
In the case of B3, the binding result is on record as “binds”.
